In article PMC4820699, “Localisation and protein-protein interactions of the Helicobacter pylori taxis sensor TlpD and their connection to metabolic functions” (Scientific Reports, 2016):

Molecular target: T1, purified recombinant H. pylori catalase (KatA) (H. pylori, UniProt P77872 1-505)
T1 construct: Catalase KatA of Helicobacter pylori, recombinant, active, tag-free; source: E. coli, recombinant, tag-free, purified
T1 sequence: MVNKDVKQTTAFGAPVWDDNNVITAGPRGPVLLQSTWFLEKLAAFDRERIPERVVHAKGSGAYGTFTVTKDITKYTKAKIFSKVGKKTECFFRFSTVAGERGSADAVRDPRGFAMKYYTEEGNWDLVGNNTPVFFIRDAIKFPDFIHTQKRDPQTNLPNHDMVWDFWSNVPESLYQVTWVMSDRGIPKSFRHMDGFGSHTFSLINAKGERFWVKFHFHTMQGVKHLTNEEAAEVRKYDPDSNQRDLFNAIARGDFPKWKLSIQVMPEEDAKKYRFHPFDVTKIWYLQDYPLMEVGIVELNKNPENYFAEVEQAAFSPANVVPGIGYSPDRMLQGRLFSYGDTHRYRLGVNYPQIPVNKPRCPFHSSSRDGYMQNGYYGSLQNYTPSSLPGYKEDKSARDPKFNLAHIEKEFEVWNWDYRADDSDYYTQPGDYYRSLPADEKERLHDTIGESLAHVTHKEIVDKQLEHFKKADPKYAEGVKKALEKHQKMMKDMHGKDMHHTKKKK
Experiment: BLI; Octet RED96; inverse setting: ligand KatA (tag-free) coupled to the sensor via free amine groups, analyte TlpD-V5 at 200, 400 and 2,000 nM in assay buffer, association 1,800 sec; two-state parallel binding model
Conditions: both partners purified

B1: TlpD-V5 (purified from H. pylori) (natural protein)
chain: not shown
notes: Transducer-like protein / energy taxis sensor TlpD of Helicobacter pylori; tlpD-V5 fusion gene with the potential tlpD promoter region in pHel2; also called TlpD (V5-tagged); native TlpD-V5; not shown: V5, C-terminal, kept
- KD (fast on, slow off; two-state parallel model): 275 nM
- KD (slow on, fast off; two-state parallel model): 2000 nM
